US20060286112A1 (published 2006)

Key:
[1] = target: T1, human VLA-1 α1 subunit (CD49a), full-length, on transfected CHO cells (human, UniProt P56199 29-1179); test: cell-based or functional assay
[2] = target: T1, human VLA-1 α1 subunit (CD49a), …; test: cell-based or functional assay; remark: listed apart in the source
[3] = target: T2, human VLA-1 (alpha 1/beta 1, CD49a/CD29) on IL-2 stimulated human PBMC / T cells (human, UniProt P56199 29-1179; P05556 21-798); test: cell-based or functional assay
[4] = target: T2, human VLA-1 (alpha 1/beta 1, …); test: cell-based or functional assay; remark: listed apart in the source
[5] = target: T2, human VLA-1 (alpha 1/beta 1, …); test: cell-based or functional assay; remark: listed apart in the source
[6] = target: T3, human CD49a I domain I11F (human, UniProt P56199 151-364, I11F); test: ELISA on secreted mutant I domain
T3 construct: domain: I domain; not shown: myc and His tags

[7] = target: T4, human CD49a I domain E48K (human, UniProt P56199 151-364, E48K); test: ELISA on secreted mutant I domain
T4 construct: domain: I domain; not shown: myc and His tags

[8] = target: T5, human CD49a I domain E66A (human, UniProt P56199 151-364, E66A); test: ELISA on secreted mutant I domain
T5 construct: domain: I domain; not shown: myc and His tags

[9] = target: T6, human CD49a I domain K88N (human, UniProt P56199 151-364, K88N); test: ELISA on secreted mutant I domain
T6 construct: domain: I domain; not shown: myc and His tags

[10] = target: T7, human CD49a I domain with residues 91-96 VQRGGR replaced by mouse GRRGGL (human, UniProt P56199 151-364, V91G; Q92R; R96L); test: ELISA on secreted mutant I domain
T7 construct: domain: I domain; also called V91G, Q92R, R96L; not shown: myc and His tags

[11] = target: T8, human CD49a I domain K142Q (human, UniProt P56199 151-364, K142Q); test: ELISA on secreted mutant I domain
T8 construct: domain: I domain; text prints KI42Q once; not shown: myc and His tags

[12] = target: T9, human CD49a I domain S162H (human, UniProt P56199 151-364, S162H); test: ELISA on secreted mutant I domain
T9 construct: domain: I domain; not shown: myc and His tags

[13] = target: T10, human CD49a I domain T204A (human, UniProt P56199 151-364, T204A); test: ELISA on secreted mutant I domain
T10 construct: domain: I domain; not shown: myc and His tags

B1: 6.48 (antibody, V domains shown)
VH: EVQLVQSGAEVKKPGESLRISCKGSGYSVSSYWIGWVRQMPGKGLEWMGIIYPGDSDTRYSPSFQGQVTISADKSISTAFLQWISLKASDTAMYYCARLQGDCSGGSCYGHFDCWGQGTLVTVS
VL: DVVLTQSPLSLPVTLGQPASISCRSSQSLVNSDGDTYLSWFQQWPGQSPRRLFYEVSNWDSGVPDRFSGSGSGTDFTLKISRVEAEDVGVYYCMQGTHWLTFGGGTKVEIK
notes: human IgG2 or IgG4
Question: Which results are given for B1?
Answer: relative inhibition at an optimal concentration, CHO-VLA-1 adhesion to collagen IV [1]: > 80%; IC50, adhesion of CHO-VLA-1 cells to collagen IV [2]: 0.12 nM; % adhesion of IL-2 activated T cells to collagen IV vs no antibody, 10 µg/ml, +PMA [3]: 17.5%; % adhesion of IL-2 activated T cells to collagen IV vs no antibody, 10 µg/ml, -PMA [3]: 41.3%; % adhesion of T cells to collagen IV vs no antibody, 0.5 nM mAb, no PMA [4]: 70%; % adhesion of T cells to collagen IV vs no antibody, 5 nM mAb, no PMA [4]: 16.7%; % adhesion of T cells to collagen IV vs no antibody, 0.5 nM mAb, 10 ng/ml PMA [5]: 94.6%; % adhesion of T cells to collagen IV vs no antibody, 5 nM mAb, 10 ng/ml PMA [5]: 72.5%; binding result [6]: binds; binding result [7]: binds; binding result [8]: binds; binding result [9]: binds; binding result [10]: no binding; binding result [11]: binds; binding result [12]: binds

B2: 7.7 (antibody, V domains shown)
VH: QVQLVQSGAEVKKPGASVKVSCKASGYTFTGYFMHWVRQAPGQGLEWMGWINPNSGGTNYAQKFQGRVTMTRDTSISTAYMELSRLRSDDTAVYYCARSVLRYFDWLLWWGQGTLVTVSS
VL: DIVMTQSPESLAVSLGERTTINCKSSQSVLFSSNNENHLAWYQQKPGQPPKLLIYWASTRESGVPDRFSGSGSGTDFTLTISSLQAEDVAVYYCQQYYITPCSFGQGTKLEIK
notes: human IgG2 or IgG4
Question: What does the source list for B2?
Answer: IC50, adhesion of CHO-VLA-1 cells to collagen IV [2]: 0.59 nM; % adhesion of IL-2 activated T cells to collagen IV vs no antibody, 10 µg/ml, +PMA [3]: 27.4%; % adhesion of IL-2 activated T cells to collagen IV vs no antibody, 10 µg/ml, -PMA [3]: 40.1%; % adhesion of T cells to collagen IV vs no antibody, 0.5 nM mAb, no PMA [4]: 113%; % adhesion of T cells to collagen IV vs no antibody, 5 nM mAb, no PMA [4]: 66.5%; % adhesion of T cells to collagen IV vs no antibody, 0.5 nM mAb, 10 ng/ml PMA [5]: 96.6%; % adhesion of T cells to collagen IV vs no antibody, 5 nM mAb, 10 ng/ml PMA [5]: 91.9%; binding result [6]: binds; binding result [7]: no binding; binding result [8]: binds; binding result [9]: binds; binding result [10]: binds; binding result [11]: binds; binding result [12]: binds; binding result [13]: binds

B3: 7.34 (antibody, V domains shown)
VH: EVQLVESGGGLVKPGGSLRLSCAASGFTFSNAWMSWVRQAPGKGLEWVGRIKSKTEGGTTDNVAPVKGRFTISRDDSKNTLYLQMNSLKTEDTAVYYCTITTHYYGMDVWGQGTTVTVSS
VL: DIQMTQSPSSLSASVGDRVTITCRASQTINNYLNWYQQKPGKAPKLLIYAASSLQSGVPSRFSGSGSGTDFTLTISSLQPEDFATYSCQQSNSPPFTFGPGTKVDVK
Question: What does the source list for B3?
Answer: relative inhibition at an optimal concentration, CHO-VLA-1 adhesion to collagen IV [1]: > 80%; IC50, adhesion of CHO-VLA-1 cells to collagen IV [2]: 0.19 nM; % adhesion of IL-2 activated T cells to collagen IV vs no antibody, 10 µg/ml, +PMA [3]: 38.3%; % adhesion of IL-2 activated T cells to collagen IV vs no antibody, 10 µg/ml, -PMA [3]: 41.3%; % adhesion of T cells to collagen IV vs no antibody, 0.5 nM mAb, no PMA [4]: 89.2%; % adhesion of T cells to collagen IV vs no antibody, 5 nM mAb, no PMA [4]: 50.6%; % adhesion of T cells to collagen IV vs no antibody, 0.5 nM mAb, 10 ng/ml PMA [5]: 98.2%; % adhesion of T cells to collagen IV vs no antibody, 5 nM mAb, 10 ng/ml PMA [5]: 89.7%

B4: 7.73 (antibody, V domains shown)
VH: QVQLQESGPGLVKPSETLSLTCTVSGGSISSHYWSWIRQPAGKGLEWIGRVYSSGSTNSNPSLKSRVTMSVDTAKNQFSLKLSSVTAADTAVYYCAREGYDFWSDYYNYYYGMDVWGQGTTVTVS
VL: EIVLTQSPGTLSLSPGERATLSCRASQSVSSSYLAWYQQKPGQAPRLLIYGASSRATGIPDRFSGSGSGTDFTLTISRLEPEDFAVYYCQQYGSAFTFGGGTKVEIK
Question: How did the “relative inhibition at an optimal concentration, CHO-VLA-1 adhesion to collagen IV” value (shortened to “relative inhibition”) [1] turn out when B4 was run?
Answer: > 80%

Question: And the “IC50, adhesion of CHO-VLA-1 cells to collagen IV” value (shortened to “IC50, adhesion of CHO-VLA-1 cells”) [2]?
Answer: 0.43 nM

B5: 4.13 (antibody, V domains shown)
VH: QVQLVQSGAEVKKPGASVKVSCKASGYTFTSYYMNWVRQAPGQGLEWMGIISPSGGSTTYAQKFQGRVTMTRDTSTSTVYMELSSLRSEDTAVYYCARTGYSGYEGYYYGLDVWGQGTTVTVSS
VL: DVVMTQSPLSQPVTLGQPASISCRSSQSLVYSDGNTYLHWFQQRPGQSPRRLIYKVSNWDSGVPDRFSGSGSGTDFTLKISRVEAEDVGVYDCMQGTHWPSTFGGGTKVEIK
Question: Which “relative inhibition” value [1] does the source give for B5 here?
Answer: > 80%

Question: And the “IC50, adhesion of CHO-VLA-1 cells” value [2]?
Answer: < 0.01 nM

B6: 2.11 (antibody, V domains shown)
VH: QVQLQESGPGLVKPSQTLSLTCTVSGGSINSGGYYWSWIRQHPGKGLEWIGYIFYSGSTYYNPSLKSRVNISVDTSKNQFSLKMSSVTAADTAVYYCARDQDGFDYWGQGTLVTVSS
VL: DIVMTQTPLSLPVTPGEPASISCRSSQSLLDSDDGNTYLDWYLQKPGQSPQLLIYTLSYRASGVPDRFSGSGSGTDFTLKISRVEAEDVGVYYCMQRIEFPWTFGQGTKVEIK
notes: human IgG2 or IgG4
Question: With B6 as the binder, how does the “relative inhibition” value [1] read?
Answer: > 80%

Question: And the “IC50, adhesion of CHO-VLA-1 cells” value [2]?
Answer: 0.07 nM

Question: Does B6 bind [6]?
Answer: binds

Question: Does B6 bind [7]?
Answer: binds

Question: Does B6 bind [8]?
Answer: binds

Question: Does B6 bind [9]?
Answer: binds

Question: Does B6 bind [10]?
Answer: binds

Question: Does B6 bind [11]?
Answer: no binding

Question: Does B6 bind [13]?
Answer: binds

B7: 7.22 (antibody, V domains shown)
VH: QVQLQESGPGLGKPSQTLSLTCTVSGGSISSGGHYWSWIRQHPGKGLEWIGYIYYSGSTYYNPSLKSRVTISVDTSKNQFSLKLSSVTAADTAVYYCARDDVRYGGMDVWGQGTTVTVSS
VL: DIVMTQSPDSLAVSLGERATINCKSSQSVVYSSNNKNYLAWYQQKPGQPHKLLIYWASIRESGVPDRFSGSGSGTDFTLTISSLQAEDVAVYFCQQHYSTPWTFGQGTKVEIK
Question: For B7, which “relative inhibition” value [1] is on record?
Answer: > 80%

Question: What about the “IC50, adhesion of CHO-VLA-1 cells” value [2] of the same binder?
Answer: 0.41 nM

B8: 6.3 (antibody, V domains shown)
VH: QVLLQESGPGLVKPSQTLSLTCTVSGGSISSGGYYWSWIRQHPGKGLEWIGYINYSGSAYYNPSLKSRVTISVDTSKNQFSLKLSSVTAADTAVYYCARDHWLLRGFDYWGQGTLVTVSS
VL: DIVMTQTPLSLSVTPGQPASISCKSSQSLLHSDGKTYLYWYLQKPGQPPQLLIYEVSNRFSGVPDRFSGSGSGTDFTLKISRVEAEDVGVYYCMQSIQLPRTFGQGTKVEIK
Question: How did the “IC50, adhesion of CHO-VLA-1 cells” value [2] turn out when B8 was run?
Answer: 0.68 nM

B9: 7.3 (antibody, V domains shown)
VH: QVQLVESGGGVVQPGRSLRLSCAASGITFSSYGMHWVRQAPGKGLEWVAVMWYEGSNKYYADSVKGRFTISRDNSKNTLYLQMNSLRAEDTAVYYCARGVLRYFDWLSYWGQGTLVTVSS
VL: EIVMTQSPATLSVSPGERATLSCRASQSVSSHLAWYQQKPGQAPRLLIYGASTRATGIPARFSGSGSGTEFTLTISSLQSEDFAVYYCQQYNNWPLTFGGGTKVEIK
Question: B9 was tested. Which “IC50, adhesion of CHO-VLA-1 cells” value [2] did it give?
Answer: 0.94 nM

B10: 2.10 (antibody, V domains shown)
VH: EVQLVESGGGLVKPGGSLRLSCAASGFTLSSYSMNWVRQAPGKGLEWVSSISSSSSYIHYADSVKGRFTISRDNAKNSLYLQMNSLRAEDTAVYYCARAPVVFDYWGQGTLVTVSS
VL: EIVLTQSPGTLSLSPGERATLSCRASQSVSSSYLAWYQQKPGQAPRLLISGASSRATGIPDRFSGSGSGTDFTLTISRLEPEDFAVYYCQQYGGSLTWTFGQGTKVEIK
Question: B10 was tested. Which “IC50, adhesion of CHO-VLA-1 cells” value [2] did it give?
Answer: 2.37 nM

B11: 7.57 (antibody, V domains shown)
VH: QVQLVQSGAEVKKPGASVRVSCKASGYTFTGYFMHWVRQAPGQGLEWMGWINPNSGGTNYAQKFQGRVTMTRDTSISTASMELSRLRSDDTAVYYCARAPLRYFDWLDYWGQGTLVTVSS
VL: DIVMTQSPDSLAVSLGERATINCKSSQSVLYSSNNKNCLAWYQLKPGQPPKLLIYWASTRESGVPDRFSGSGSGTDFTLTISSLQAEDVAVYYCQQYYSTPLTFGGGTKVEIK
Question: B11 was tested. Which “IC50, adhesion of CHO-VLA-1 cells” value [2] did it give?
Answer: 3.25 nM

B12: 7.40 (antibody, V domains shown)
VH: QVQLQESGPGLVKPSETLSLTCTVSGGSISSHYWSWIRQPAGKGLEWIGRIYTSGSTNYNPSLKSRVTMSVDTSKNQFSLKLRSVTAADTAVYYCAREGYSSSSGHYDYYYGMDVWGQGTTVTVS
VL: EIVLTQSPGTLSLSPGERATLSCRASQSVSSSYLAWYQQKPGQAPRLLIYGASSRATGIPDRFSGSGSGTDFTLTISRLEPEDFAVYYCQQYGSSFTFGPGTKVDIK
Question: For B12, which “IC50, adhesion of CHO-VLA-1 cells” value [2] is on record?
Answer: 4.72 nM

B13: 2.1 (antibody, V domains shown)
VH: QVQLQESGPGLVKPSQTLSLTCTVSGGSISSGGYYWSWIRQHPGKGLEWIGYIYNSGSTYYNPSLKSRGTISADTSKNQFSLKLSSVTAADTAVYYCARGSSSYYWYFDLWGRGTLVTVSS
VL: DIQMTQSPSSMSASVGDRVTITCRASQRISSNLNWYQQKPGKAPKFLIYGASSLQSGVPSRFSGSGSGTDFTLTISSLRPEDFATYYCQQSYSTPYTFGPGTKVDIK
Question: B13 was tested. Which “IC50, adhesion of CHO-VLA-1 cells” value [2] did it give?
Answer: 21.4 nM

B14: 2.25 (antibody, V domains shown)
VH: QVQLQQSGPGLVKPSQTLSLTCAISGDSVSSNSAAWNWIRQSPSRGLEWLGRTYYMSKWYNDYAVSVKSRITINPDTSKNQFSLQLNSVTPEDTAVYYCARARYCGGDCYDFDYWGQGTLVTVSS
VL: DIQMTHSPSSLSASVGDRVTITCRASQSISISLNWYQQKPGNAPKLLIYAASSLQSGIPSRFSGSGSGTDFTLTISSLQPEDFATYYCQQSFSTPWTFGQGTKVEIK
Question: How did the “IC50, adhesion of CHO-VLA-1 cells” value [2] turn out when B14 was run?
Answer: 74.9 nM
